# Reference: publication PMC5662737, “Structural and mechanistic insights into ATRX-dependent and -independent functions of the histone chaperone DAXX” (Nature Communications, 2017)
# Substitutions are numbered along the chain they refer to. Numbers in names are those of the source.
# T1: human DAXX 4HB F87L (tumor mutation) (human, UniProt Q9UER7 50-144, F87L)
# T1 construct: DAXX, human, four-helix bundle, residues 50-144, with the tumor mutation F87L; also called DAXX F87L; source: E. coli BL21(DE3)-RIL, purified (Ni-NTA, heparin, Superdex 200); not shown: His6-SUMO, N-terminal, cleaved
# T1 sequence (looked up): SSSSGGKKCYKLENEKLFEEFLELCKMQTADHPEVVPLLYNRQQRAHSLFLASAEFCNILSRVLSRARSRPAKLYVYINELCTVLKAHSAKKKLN
# T2: human DAXX four-helix bundle domain (4HB, residues 50–144) (human, UniProt Q9UER7 50-144)
# T2 construct: DAXX (death-domain-associated protein), human, N-terminal four-helix bundle, residues 50-144; Expressed and purified 'in a similar way' as the fusion protein (His6-SUMO removed with Ulp1); also called DAXX 4HB; hDAXX 4HB; source: E. coli BL21(DE3)-RIL, purified (Ni-NTA, heparin, Superdex 200); not shown: His6-SUMO, N-terminal, cleaved
# T2 sequence (looked up): T1 sequence (looked up) with L38F
# T3: hDAXX 4HB F87A (Homo sapiens)
# T3 chain: T1 sequence (looked up) with L38A
# T4: human DAXX four-helix bundle domain (4HB, residues 50–144) (human, UniProt Q9UER7 50-144)
# T4 chain: T1 sequence (looked up) with L38F
# B1: human ATRX DAXX-binding motif (DBM) peptide, wild type (peptide, UniProt P46100 1265-1288, looked up)
# peptide: NDPENRIAKKMLLEEIKANLSSDE
# notes: The limits 1265–1288 are printed for the DBM of the fusion construct; also called ATRX DBM; hATRX DBM; source: synthetic peptide (Tufts University Peptide Core Facility)
# B2: human ATRX DBM peptide I1280A (peptide, UniProt P46100 1265-1288, looked up)
# peptide: NDPENRIAKKMLLEEAKANLSSDE
# notes: ATRX, human, DBM, residues 1265-1288, with I1280A; Limits as for m4; also called ATRX I1280A mutant; source: synthetic peptide (Tufts University Peptide Core Facility)
# Tests used:
# [1] = molecular target: T1, human DAXX 4HB F87L (tumor mutation); assay: ITC; 17 injections of 2.2 μl ATRX DBM peptide (1.5 mM) into 200 µl DAXX 4HB or mutants (150 µM); 20 °C; 20 mM Tris pH 7.5, 0.3 M NaCl; single site-binding model; conditions: both partners purified
# [2] = molecular target: T2, human DAXX four-helix bundle domain …; assay: as above; conditions: both partners purified
# hDAXX 4HB F87A = molecular target: T3, hDAXX 4HB F87A; assay: ITC
# [3] = molecular target: T4, human DAXX four-helix bundle domain …; assay: ITC
binder,measurement,setting,value
B1,Kd,[1],33.8 µM
same,Kd,[2],0.9 µM
same,Kd,hDAXX 4HB F87A,7.5 µM
B2,fold weaker binding than wild-type ATRX DBM,[2],~14 fold
same,Kd,[3],12.9 µM
